# Laboratory results: patent publication US20020165186A1, “Compounds that affect CD83 expression, pharmaceutical compositions comprising said compounds and methods for identifying said compounds” (priority 2000, published 2002)
# B1: stem-loop-1: CD83 RNA sub-fragment from nucleotide 295 to nucleotide 465 of SEQ ID NO:1, single stem-loop structure (nucleic acid, listed as Homo sapiens)
# sense: AGCTGCAACTCGGGGACATACAGGTGCACTCTGCAGGACCCGGATGGGCAGAGAAACCTAAGTGGCAAGGTGATCTTGAGAGTGACAGGATGCCCTGCACAGCGTAAAGAAGAGACTTTTAAGAAATACAGAGCGGAGATTGTCCTGCTGCTGGCTCTGGTTATTTTCTAC
# modifications: RNA; CDS (1)..(615)
# B2: CD83 RNA: in vitro transcribed RNA of nucleotides 1 to 618 of SEQ ID NO:1 (human CD83 coding region) (nucleic acid, listed as Homo sapiens)
# sense: ATGTCGCGCGGCCTCCAGCTTCTGCTCCTGAGCTGCGCCTACAGCCTGGCTCCCGCGACGCCGGAGGTGAAGGTGGCTTGCTCCGAAGATGTGGACTTGCCCTGCACCGCCCCCTGGGATCCGCAGGTTCCCTACACGGTCTCCTGGGTCAAGTTATTGGAGGGTGGTGAAGAGAGGATGGAGACACCCCAGGAAGACCACCTCAGGGGACAGCACTATCATCAGAAGGGGCAAAATGGTTCTTTCGACGCCCCCAATGAAAGGCCCTATTCCCTGAAGATCCGAAACACTACCAGCTGCAACTCGGGGACATACAGGTGCACTCTGCAGGACCCGGATGGGCAGAGAAACCTAAGTGGCAAGGTGATCTTGAGAGTGACAGGATGCCCTGCACAGCGTAAAGAAGAGACTTTTAAGAAATACAGAGCGGAGATTGTCCTGCTGCTGGCTCTGGTTATTTTCTACTTAACACTCATCATTTTCACTTGTAAGTTTGCACGGCTACAGAGTATCTTCCCAGATTTTTCTAAAGCTGGCATGGAACGAGCTTTTCTCCCAGTTACCTCCCCAAATAAGCATTTAGGGCTAGTGACTCCTCACAAGACAGAACTGGTATGA
# modifications: RNA transcript; CDS (1)..(615)
# B3: stem-loop-2: CD83 RNA sub-fragment from nucleotide 466 to nucleotide 618 of SEQ ID NO:1, 3-pronged stem-loop structure (nucleic acid, listed as Homo sapiens)
# sense: TTAACACTCATCATTTTCACTTGTAAGTTTGCACGGCTACAGAGTATCTTCCCAGATTTTTCTAAAGCTGGCATGGAACGAGCTTTTCTCCCAGTTACCTCCCCAAATAAGCATTTAGGGCTAGTGACTCCTCACAAGACAGAACTGGTATGA
# modifications: RNA; CDS (1)..(615)
# B4: CD83 from nucleotides 466 to 615 of SEQ ID NO:1: in vitro transcribed RNA containing nucleotides 466 to 615 of SEQ ID NO:1 (nucleic acid, listed as Homo sapiens)
# sense: TTAACACTCATCATTTTCACTTGTAAGTTTGCACGGCTACAGAGTATCTTCCCAGATTTTTCTAAAGCTGGCATGGAACGAGCTTTTCTCCCAGTTACCTCCCCAAATAAGCATTTAGGGCTAGTGACTCCTCACAAGACAGAACTGGTA
# modifications: RNA transcript; CDS (1)..(615)
# How the values were obtained:
# Assay type in all cases: binding
# [1] = target: T1, GST-ELAV (HuR) fusion protein (Homo sapiens, UniProt Q15717); assay: RNA gel mobility shift of CD83 RNA with GST-ELAV (HuR); conditions: for HuR binding to sub-fragment domain: FIG. 10
# T1 construct: made in house; host or cells: E. coli BL21
# T1 sequence (Q15717 whole entry, the tested form may be a part): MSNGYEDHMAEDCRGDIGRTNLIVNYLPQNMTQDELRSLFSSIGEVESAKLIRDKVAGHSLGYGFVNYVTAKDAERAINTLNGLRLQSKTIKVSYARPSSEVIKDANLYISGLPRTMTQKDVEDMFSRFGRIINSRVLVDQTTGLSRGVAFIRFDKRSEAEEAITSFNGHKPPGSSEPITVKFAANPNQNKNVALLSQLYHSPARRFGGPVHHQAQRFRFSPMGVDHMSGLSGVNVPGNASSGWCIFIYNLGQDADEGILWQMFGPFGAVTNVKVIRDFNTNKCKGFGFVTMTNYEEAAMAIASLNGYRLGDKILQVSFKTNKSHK
# Method: RNA mobility shift experiments are a very sensitive method for characterizing RNA-protein interactions. For this, the RNA to be examined can be amplified and radioactively labeled with the aid of in vitro transcription from a linear DNA template. The labeling generally occurs with […]. In order to ensure the correct folding of the RNA, this is heated in a water bath to 80° C. and cooled to room temperature. RNA obtained in this manner is then incubated with the desired protein and subsequently analyzed on a native polyacrylamide gel, i.e. under non-denaturing conditions.
# In order to obtain radioactively labeled RNA for the RNA mobility shift experiments, approximately 20 μg of this vector were linearized with EcoRI and purified on a 0.8% agarose gel. After elution from the gel, the template was extracted with phenol and ethanol precipitated. The resulting DNA was resuspended at a concentration of […] in 20μl nuclease-free water. Radioactively labeled RNA was generated using a Riboprobe In Vitro Transcription System (Promega, Heidelberg, Germany) according to the instructions of the manufacturer using [α-^32P]-UTP. The transcription products were controlled for size and purity by separating 1 μl of the in vitro transcription reaction on a denaturing RNA agarose gel (1.2%), blotting the gel to a nitrocellulose membrane (Amersham-Pharmacia, Freiburg, Germany) for 8 hours and examining the nitrocellulose filter with the aid of photographic film using RNA size standards.
# (§1) RNA mobility shift experiments were then carried out using the radioactively labeled CD83 RNA and the GST-ELAV (HuR) fusion protein as described above. 1 μl of approximately 150-200 ng/ml radioactively labeled CD83 RNA and 1 μl of GST-ELAV (HuR) (protein concentration: 0.3 mg/ml) were used per reaction. Alternatively, GST protein without ELAV sequences was used as a control. The radioactively labeled CD83 RNA was heated to 80° C. in a water bath and cooled to room temperature directly before the reaction. The GST-ELAV (HuR) fusion protein (or GST control protein directly expressed from the vector pGEX-5X-1 was carefully mixed with a binding mixture consisting of 1 μl radioactively labeled CD83 RNA, 1 μl Rnasin® RNAse inhibitor (diluted 5:1 in PBS), 1 μl 10×PBS and 6 μl MS2 RNA or 5S RNA (Roche Diagnostics, Mannheim, Germany) (0.8 μg/μl) and incubated at room temperature for 30 min. 3 μl of 50% glycerin were added to each reaction to ease loading and analysis of the binding between the GST-ELAV (HuR) fusion protein and the CD83 RNA occurred on a 4% or 6% native polyacrylamide gel with a TBE running buffer of pH 8.3.
# As a control for the specificity of the interaction between HuR and CD83 mRNA, RNA mobility shifts as described in Example 1 were performed using the GST protein as described above, a GST-L5 fusion protein (Schatz et al. (1998) PNAS USA 95: 1607-1612), and a GST- M9 fusion protein comprising the M9 domain of the heterogeneous nuclear ribonucleoprotein hnRNP A1 (Pollard, V. W. et al. (1996) Cell 86: 985-994).
# The resulting vectors were linearized with EcoRI and radioactively labeled RNA was produced and employed in RNA mobility shift assays as described above.
# GST protein = target: T2, GST protein (Schistosoma japonicum, UniProt P08515); assay: RNA gel mobility shift of CD83 RNA with GST protein control; conditions: native polyacrylamide gel, FIG. 3
# T2 construct: made in house
# T2 sequence (P08515 whole entry): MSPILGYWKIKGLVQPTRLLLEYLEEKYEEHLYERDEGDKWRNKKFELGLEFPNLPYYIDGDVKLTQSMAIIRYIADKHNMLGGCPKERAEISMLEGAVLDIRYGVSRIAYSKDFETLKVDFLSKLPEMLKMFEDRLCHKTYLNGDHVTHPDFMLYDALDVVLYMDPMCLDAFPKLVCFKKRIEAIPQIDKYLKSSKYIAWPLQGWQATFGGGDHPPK
# Method: as §1
# GST-ELAV (HuR) [2] = target: T3, GST-ELAV (HuR) (Homo sapiens, UniProt Q15717); assay: RNA gel competition mobility shift with unlabeled CD83 RNA; conditions: increasing amounts of unlabeled RNA, FIG. 5
# T3 construct: made in house; host or cells: E. coli BL21
# T3 sequence (Q15717 whole entry): as the sequence (Q15717 whole entry, the tested form may be a part) above
# Method: For this, the binding mixture as described above was produced with increasing amounts of non-radioactive CD83 RNA and the RNA mobility shift experiments were carried out as described above, except that the binding mixture was incubated with the respective protein for 15 min and then the same amount of radioactively labeled CD83 RNA (1 μl) was subsequently added to each reaction and incubation was continued for a further 15 min.
# GST-ELAV (HuR) [3] = target: T3, GST-ELAV (HuR); assay: Surface Plasmon Resonance (BIACore X) protein-RNA interaction
# Excerpt: Specific protein-RNA interactions were detected by Surface Plasmon Resonance using the BIACore X optical biosensor (Pharmacia Biosensor AB, Upsala, Sweden).
# The RNA used contained nucleotides 466 to 615 of SEQ ID NO:1 having a molecular mass of 48,350 gr/mol.
# The GST-fusion proteins of interest (GST alone or GST-ELAV (HuR)) were immobilized onto the surface of a CM5 Chip (Pharmacia Biosensor AB, Upsala, Sweden) by using the BIACore GST Capture Kit (Pharmacia Biosensor AB, Upsala, Sweden), according to the manufacturers instructions, until a change of at least 1,000 resonance units (RU) was detectable.
# 1 μg of in vitro transcribed RNA (using the T7/SP6 Riboprobe Kit, Promega, Mannheim, Germany) was diluted in a total volume of 80 μl HBS-EP buffer (10 mM HEPES, 150 mM NaCl, 3 mM EDTA, 0.005% (v/v) polysorbate 20) and was allowed to flow over the chip at a flow rate of 50μl/minute. The standard running buffer was HBS-EP buffer. The sensor surface was regenerated between assays by injecting 30 μl of 0.5 M NaCl to remove bound analyte.
# Determination of KD values and calculation of binding specifity were performed using BIAEvaluation Software 3.1 (Pharmacia Biosensor AB, Upsala, Sweden).
molecule,measurement,setting,value
B1,HuR binding to sub-fragment domain,[1],can bind
B2,"specificity of the shift in mobility (GST, GST-L5, GST-M9, GST-ELAV (HuR))",[1]; FIG. 4,only observed with protein comprising the HuR sequence
same,mobility shift of the RNA by GST-ELAV (HuR),"[1]; native polyacrylamide gel, FIG. 3",shifted the CD83 RNA to a higher position in the gel
same,region of HuR binding,"[1]; sub-fragments nt1-294, nt202-414, nt295-618, FIG. 6",from nucleotide 415 to nucleotide 618
same,mobility shift of the RNA by GST protein control,GST protein,no shift occurred
same,competition of labeled CD83 RNA binding by unlabeled RNA,GST-ELAV (HuR) [2],capable of titrating free GST-ELAV (HuR) protein
B3,HuR binding to sub-fragment domain,[1],can bind
B4,binding of HuR (affinity and specificity in words),GST-ELAV (HuR) [3],high affinity and is highly specific
